Measured values: patent US20220259297A1 (ACCELERON PHARMA, published 2022)

Legend:
Test in all cases: SPR (Biacore); receptor-Fc captured by anti-Fc antibody, ligand injected
GDF11 = target: T1, GDF11 (UniProt O95390 299-407)
T1 construct: also called BMP11
T1 sequence (looked up): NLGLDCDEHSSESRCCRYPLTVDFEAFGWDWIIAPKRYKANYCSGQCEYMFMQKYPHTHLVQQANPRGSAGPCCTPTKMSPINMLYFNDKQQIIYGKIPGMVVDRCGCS
Procedure: (§1) A Biacore™-based binding assay was used to compare ligand binding selectivity of an exemplary ALK4-Fc:ActRIIB-Fc heterodimeric complex as described above with the binding selectivity of ActRIIB-Fc and ALK4-Fc homodimer complexes. The ALK4-Fc:ActRIIB-Fc heterodimer, ActRIIB-Fc homodimer, and ALK4-Fc homodimer were independently captured onto the system using an anti-Fc antibody. Ligands were injected and allowed to flow over the captured receptor protein. Results are summarized in the Table 5 below, in which ligand off-rates (kd) most indicative of effective ligand traps are denoted by gray shading.

activin A = target: T2, activin A (UniProt P08476 311-426)
T2 sequence (looked up): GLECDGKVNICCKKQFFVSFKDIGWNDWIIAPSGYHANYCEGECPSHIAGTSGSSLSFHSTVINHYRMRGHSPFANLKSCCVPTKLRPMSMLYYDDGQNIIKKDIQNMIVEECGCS
Procedure: as §1

BMP6 = target: T3, BMP6 (UniProt P22004 382-513, limits assumed)
T3 sequence (looked up): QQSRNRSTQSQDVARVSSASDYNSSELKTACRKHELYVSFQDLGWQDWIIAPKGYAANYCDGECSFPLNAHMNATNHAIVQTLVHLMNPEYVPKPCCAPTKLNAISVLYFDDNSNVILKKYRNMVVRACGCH
Procedure: as §1

GDF8 = target: T4, GDF8 (UniProt O14793 267-375)
T4 construct: also called myostatin
T4 sequence (looked up): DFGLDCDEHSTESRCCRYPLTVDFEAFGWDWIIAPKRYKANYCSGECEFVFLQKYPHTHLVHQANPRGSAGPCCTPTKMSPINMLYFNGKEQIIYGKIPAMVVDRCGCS
Procedure: as §1

GDF3 = target: T5, GDF3 (UniProt Q9NR23 251-364)
T5 sequence (looked up): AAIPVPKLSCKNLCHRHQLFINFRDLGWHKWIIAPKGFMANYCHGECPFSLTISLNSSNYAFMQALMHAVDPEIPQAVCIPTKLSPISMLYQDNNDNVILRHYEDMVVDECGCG
Procedure: as §1

BMP10 = target: T6, BMP10 (UniProt O95393 317-424)
T6 sequence (looked up): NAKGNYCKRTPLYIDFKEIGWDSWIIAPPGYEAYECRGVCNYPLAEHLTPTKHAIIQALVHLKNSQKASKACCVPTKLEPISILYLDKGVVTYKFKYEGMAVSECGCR
Procedure: as §1

activin B = target: T7, activin B (UniProt P09529 293-407)
T7 sequence (looked up): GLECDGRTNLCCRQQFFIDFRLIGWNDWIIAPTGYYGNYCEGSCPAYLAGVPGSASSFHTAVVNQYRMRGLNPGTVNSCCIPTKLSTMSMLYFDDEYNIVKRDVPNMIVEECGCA
Procedure: as §1

B1: ALK4-Fc:ActRIIB-Fc heterodimer (Fc fusion)
chain 1: SGPRGVQALLCACTSCLQANYTCETDGACMVSIFNLDGMEHHVRTCIPKVELVPAGKPFYCLSSEDLRNTHCCYTDYCNRIDLRVPSGHLKEPEHPSMWGPVETGGGTHTCPPCPAPELLGGPSVFLFPPKPKDTLMISRTPEVTCVVVDVSHEDPEVKFNWYVDGVEVHNAKTKPREEQYNSTYRVVSVLTVLHQDWLNGKEYKCKVSNKALPAPIEKTISKAKGQPREPQVYTLPPSREEMTKNQVSLTCLVKGFYPSDIAVEWESNGQPENNYDTTPPVLDSDGSFFLYSDLTVDKSRWQQGNVFSCSVMHEALHNHYTQKSLSLSPG
chain 2: GRGEAETRECIYYNANWELERTNQSGLERCEGEQDKRLHCYASWRNSSGTIELVKKGCWLDDFNCYDRQECVATEENPQVYFCCCEGNFCNERFTHLPEAGGPEVTYEPPPTAPTGGGTHTCPPCPAPELLGGPSVFLFPPKPKDTLMISRTPEVTCVVVDVSHEDPEVKFNWYVDGVEVHNAKTKPREEQYNSTYRVVSVLTVLHQDWLNGKEYKCKVSNKALPAPIEKTISKAKGQPREPQVYTLPPSRKEMTKNQVSLTCLVKGFYPSDIAVEWESNGQPENNYKTTPPVLKSDGSFFLYSKLTVDKSRWQQGNVFSCSVMHEALHNHYTQKSLSLSPGK
notes: The C-terminal lysine is optional; also called ALK4-Fc:ActRIIB-Fc heterodimeric complex; ALK4:ActRIIB heterodimer
- koff (GDF11): 0.00011 s⁻¹
- kon (GDF11): 3.8e+07 M⁻¹ s⁻¹
- koff (activin A): 0.00015 s⁻¹
- kon (activin A): 1.3e+07 M⁻¹ s⁻¹
- koff (BMP6): 0.0055 s⁻¹
- kon (BMP6): 2e+06 M⁻¹ s⁻¹
- koff (GDF8): 0.00021 s⁻¹
- kon (GDF8): 390000 M⁻¹ s⁻¹
- koff (GDF3): 0.017 s⁻¹
- kon (GDF3): 3.4e+06 M⁻¹ s⁻¹
- koff (BMP10): 0.0041 s⁻¹
- kon (BMP10): 5.6e+07 M⁻¹ s⁻¹
- koff (activin B): 4e-05 s⁻¹
- kon (activin B): 7.1e+06 M⁻¹ s⁻¹
